The values that follow come from patent publication US20220363718A1 (Bicycle, published 2022).

Assay [1] concerns the target T1, Biotinylated human TSLP (human, biotinylated).
T1 construct: also called hTSLP; thymic stromal lymphopoietin
Kind of assay: SPR, biotinylated hTSLP on streptavidin chip; Example 160, Ac-(SEQ ID NO: 118).

Assay [2] deals with T1, Biotinylated human TSLP. Kind of assay: SPR, biotinylated hTSLP on streptavidin chip; Example 4, Ac-(SEQ ID NO: 4).
For assay [3], the target named is T1, Biotinylated human TSLP. The assay is described as follows: SPR, biotinylated hTSLP on streptavidin chip; Example 158, Ac-(SEQ ID NO: 116).
In assay [4] the target is T1, Biotinylated human TSLP. Kind of assay: SPR, biotinylated hTSLP on streptavidin chip; Example 8, Ac-(SEQ ID NO: 6).

T1 sequence (chain, as listed by the source limits assumed): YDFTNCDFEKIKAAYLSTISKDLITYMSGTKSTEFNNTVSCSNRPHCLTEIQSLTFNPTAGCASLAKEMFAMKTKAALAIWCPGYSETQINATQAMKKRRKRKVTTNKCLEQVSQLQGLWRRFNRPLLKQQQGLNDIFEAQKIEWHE

B1: Example 160 (peptide)
peptide: CQWXEDCWRGXC
modifications: not fully specified; N-term acetyl; CQW[4-MenL]EDCWRG[4-FPhe]C as printed; 3 Cys on TATA
B1: the Kd in the assay with Biotinylated human TSLP [1] is 10 µM. This counts as double-digit micromolar.

B2: Example 4 (peptide)
peptide: CQWXEDCWRGXC
modifications: not fully specified; N-term acetyl; CQW[tBuA]EDCWRG[4-FPhe]C as printed; 3 Cys on TATA
Turning to B2, the affinity with Biotinylated human TSLP [2], expressed as Kd, was 0.0027 µM.

B3: Example 158 (peptide)
peptide: CQWLEDCWRGXC
modifications: not fully specified; N-term acetyl; CQWLEDCWRG[3-PyrA]C as printed; 3 Cys on TATA
With B3, the Kd in the assay with Biotinylated human TSLP [3] amounted to 5.4 µM. This lies in the single-digit micromolar range.

B4: Example 8 (peptide)
peptide: CQWLEDCWRGXC
modifications: not fully specified; N-term acetyl; CQWLEDCWRG[4F3ClPhe]C as printed; 3 Cys on TATA
Turning to B4, binding with Biotinylated human TSLP [4] was characterised by a dissociation constant (Kd) of 0.004 µM.
